Data set [1] deals with T1, TRBP dsRBD12 Cy3B-CF660R (doubly labeled) (human, UniProt Q15633 16-158+=T+159-227, C73A;M100C;C196V;internal_change).
T1 sequence: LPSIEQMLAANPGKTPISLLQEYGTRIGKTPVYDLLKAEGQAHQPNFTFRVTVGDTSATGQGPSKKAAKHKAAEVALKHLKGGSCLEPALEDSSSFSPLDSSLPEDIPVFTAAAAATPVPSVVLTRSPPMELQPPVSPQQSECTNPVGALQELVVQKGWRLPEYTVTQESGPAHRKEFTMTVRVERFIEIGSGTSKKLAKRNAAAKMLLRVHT
Nature of the data set: single-molecule FRET titration; 125 mM KCl, 20 mM Tris-HCl pH 7.4, 295 K; smFRET: 20 mM Tris-HCl pH 7.4, 125 mM KCl (affinity) or 25 mM KCl (orientation), 15 nM BSA, 0.001% Tween-20, 295 K; NMR buffer not in material. Conditions: protein: recombinant; tags: Cy3B and CF660R at C100 and C158; pET47b(+)-based vector; 19 bp, 3' overhang 2 nt (UU) on both strands.

Another data set deals with T2, TRBP dsRBD12 M100S (human, UniProt Q15633 16-158+=T+159-227, C73A;M100S;C196V;internal_change).
T2 sequence: T1 sequence with C85S
As to the kind of experiment: single-molecule FRET; 25 mM KCl; two configurations; smFRET: 20 mM Tris-HCl pH 7.4, 125 mM KCl (affinity) or 25 mM KCl (orientation), 15 nM BSA, 0.001% Tween-20, 295 K; NMR buffer not in material. To be noted: protein: recombinant; tags: CF660R at C158; label: Cy3B at 3' end of EL86down; 19 bp, 3' overhang 2 nt (UU) on both strands.

A further data set concerns the target T3, TRBP dsRBD12 M100C/C158S (human, UniProt Q15633 16-158+=T+159-227, C73A;M100C;C158S;C196V;internal_change).
T3 sequence: T1 sequence with C143S
The data set is described as above. To be noted: protein: recombinant; tags: CF660R at C100; label: Cy3B at 3' end of EL86down; 19 bp, 3' overhang 2 nt (UU) on both strands.

Substitutions are numbered along the chain they refer to.

B1: EL86 siRNA (dsRNA)
RNA 1: UUAAUUAUCUAUUCCGUACUU
RNA 2: GUACGGAAUAGAUAAUUAAUU
B1: the Kd in data set [1] was 0.21 ± 0.03 nM.

B2: EL86 siRNA, Cy3B-labeled (dsRNA)
RNA 1: UUAAUUAUCUAUUCCGUACUU
RNA 2: GUACGGAAUAGAUAAUUAAUU
modifications: 3' biotin on EL86up; 3' amino modifier on EL86down
For B2, the binding result with TRBP dsRBD12 M100S and in the data set with TRBP dsRBD12 M100C/C158S was “binds” in each case.

The Kd is the free concentration of one partner at which half of the binding sites on the other are occupied at equilibrium, for simple one-to-one binding.

Source of the values: PMC5852647, “Structural basis of siRNA recognition by TRBP double‐stranded RNA binding domains”.
